B1: GST-tagged USP8 MIT domain (1-142) [human] / Cadherin-1 863-877 peptide, cellulose-bound (SPOT array) [not stated] (parent complex)
chain 1: MPAVASVPKELYLSSSLKDLNKKTEVKPEKISTKSYVHSALKIFKTAEECRLDRDEERAYVLYMKYVTVYNLIKKRPDFKQQQDYFHSILGPGNIKKAVEEAERLSESLKLRYEEAEVRKKLEEKDRQEEAQRLQQKRQETG
chain 2: NEWGNRFKKLADMYG
B2: GST-tagged USP8 MIT domain (1-142) [human] / DNAJB6 118-130 peptide, cellulose-bound (SPOT array) [not stated] (parent complex)
chain 1: B1 chain 1
chain 2: PFEDFFGNRRGPR
B3: GST-tagged USP8 MIT domain (1-142) [human] / DBP 116-131 peptide, cellulose-bound (SPOT array) [human] (parent complex)
chain 1: B1 chain 1
chain 2: YVDLDAFLLEHGLPPS
B4: GST-tagged USP8 MIT domain (1-142) [human] / Girdin 1192-1207 peptide, cellulose-bound (SPOT array) [human] (parent complex)
chain 1: B1 chain 1
chain 2: EVEHRDLEDRYNQLLK

Variants of: B1
Experiment: SPOT array alanine scanning; read off a plot

| Variant | screen value |
| --- | --- |
| chain 2 E2A | ~-57% |
| chain 2 L10A | ~-62% |
| chain 2 K9A | ~-70% |
| chain 2 G15A | ~-57% |
| chain 2 G4A | ~-39% |
| chain 2 R6A | ~-98% |
| chain 2 K8A | ~-65% |
| chain 2 W3A | ~-100% |
| chain 2 Y14A | ~-44% |
| chain 2 N5A | ~-34% |
| chain 2 A11G | ~-32% |
| chain 2 M13A | ~-22% |
| chain 2 D12A | ~-56% |
| chain 2 N1A | ~-9% |
| chain 2 F7A | ~-100% |

Variants of: B2
Experiment: SPOT array alanine scanning; read off a plot

| Variant | screen value |
| --- | --- |
| chain 2 R10A | ~-29% |
| chain 2 N8A | ~-48% |
| chain 2 D4A | ~-88% |
| chain 2 P12A | ~-17% |
| chain 2 E3A | ~-46% |
| chain 2 R13A | ~20% |
| chain 2 R9A | ~-19% |
| chain 2 P1A | ~30% |
| chain 2 F5A | ~-63% |
| chain 2 G7A | ~-40% |
| chain 2 G11A | ~-39% |
| chain 2 F6A | ~-67% |
| chain 2 F2A | ~10% |

Variants of: B3
Experiment: SPOT array alanine scanning; read off a plot

| Variant | screen value |
| --- | --- |
| chain 2 D3A | ~-84% |
| chain 2 P15A | ~19% |
| chain 2 E10A | ~-94% |
| chain 2 S16A | ~12% |
| chain 2 H11A | ~-79% |
| chain 2 V2A | ~98% |
| chain 2 A6G | ~-38% |
| chain 2 L9A | ~98% |
| chain 2 F7A | ~-72% |
| chain 2 Y1A | ~110% |
| chain 2 D5A | ~-100% |
| chain 2 L8A | ~-20% |
| chain 2 L4A | ~-52% |
| chain 2 G12A | ~-87% |
| chain 2 P14A | ~-5% |
| chain 2 L13A | ~-22% |

Variants of: B4
Experiment: SPOT array alanine scanning; read off a plot

| Variant | screen value |
| --- | --- |
| chain 2 D9A | ~58% |
| chain 2 R10A | ~-92% |
| chain 2 Q13A | ~28% |
| chain 2 L14A | ~-94% |
| chain 2 K16A | ~120% |
| chain 2 L15A | ~-81% |
| chain 2 E3A | ~80% |
| chain 2 N12A | ~-37% |
| chain 2 H4A | ~65% |
| chain 2 Y11A | ~-100% |
| chain 2 E8A | ~-72% |
| chain 2 R5A | ~48% |
| chain 2 V2A | ~69% |
| chain 2 L7A | ~-100% |
| chain 2 D6A | ~40% |
| chain 2 E1A | ~50% |

Source: paper PMC12057046 (2025)
